Ends that are not written are not given here.

The assay deals with T1, αvβ6 Integrin (human, UniProt P06756 31-1048; P18564 22-788).
T1 construct: whole, on cells; also called αvβ6 Integrin surface antigen
Put plainly: flow cytometry, 10 nM biotinylated binder on human tumor cell lines, Streptavidin-PerCP-Cy5.5. Here is the method: The binding capability of peptides or peptidomimetics, of synthetic compounds according to the invention to different cell lines displaying particular targets was investigated by using flow cytometry. Detached cells were incubated with biotinylated peptide/peptidomimetic or biotinylated synthetic compound in blocking buffer for at least 30 min of ice. The cells were washed twice with washing buffer followed by incubation with streptavidin labeled with the Peridinin-chlorophyll protein PerCP-Cy5.5 (BD Biosciences) for 15 minutes on ice. After one additional wash step, samples were analyzed using FACS Canto (at least 10,000 cells per sample were counted) for cells which have bound the biotinylated reagent plus the streptavidin-PerCP-Cy5.5. Overlay histograms of cells incubated with peptide or control peptide were generated and the geometrical mean fluorescence of each sample was determined in FloJo. The EC50 measurements were calculated using Graph Prism software.

T1 sequence (P06756 31-1048, chain 1 of 2): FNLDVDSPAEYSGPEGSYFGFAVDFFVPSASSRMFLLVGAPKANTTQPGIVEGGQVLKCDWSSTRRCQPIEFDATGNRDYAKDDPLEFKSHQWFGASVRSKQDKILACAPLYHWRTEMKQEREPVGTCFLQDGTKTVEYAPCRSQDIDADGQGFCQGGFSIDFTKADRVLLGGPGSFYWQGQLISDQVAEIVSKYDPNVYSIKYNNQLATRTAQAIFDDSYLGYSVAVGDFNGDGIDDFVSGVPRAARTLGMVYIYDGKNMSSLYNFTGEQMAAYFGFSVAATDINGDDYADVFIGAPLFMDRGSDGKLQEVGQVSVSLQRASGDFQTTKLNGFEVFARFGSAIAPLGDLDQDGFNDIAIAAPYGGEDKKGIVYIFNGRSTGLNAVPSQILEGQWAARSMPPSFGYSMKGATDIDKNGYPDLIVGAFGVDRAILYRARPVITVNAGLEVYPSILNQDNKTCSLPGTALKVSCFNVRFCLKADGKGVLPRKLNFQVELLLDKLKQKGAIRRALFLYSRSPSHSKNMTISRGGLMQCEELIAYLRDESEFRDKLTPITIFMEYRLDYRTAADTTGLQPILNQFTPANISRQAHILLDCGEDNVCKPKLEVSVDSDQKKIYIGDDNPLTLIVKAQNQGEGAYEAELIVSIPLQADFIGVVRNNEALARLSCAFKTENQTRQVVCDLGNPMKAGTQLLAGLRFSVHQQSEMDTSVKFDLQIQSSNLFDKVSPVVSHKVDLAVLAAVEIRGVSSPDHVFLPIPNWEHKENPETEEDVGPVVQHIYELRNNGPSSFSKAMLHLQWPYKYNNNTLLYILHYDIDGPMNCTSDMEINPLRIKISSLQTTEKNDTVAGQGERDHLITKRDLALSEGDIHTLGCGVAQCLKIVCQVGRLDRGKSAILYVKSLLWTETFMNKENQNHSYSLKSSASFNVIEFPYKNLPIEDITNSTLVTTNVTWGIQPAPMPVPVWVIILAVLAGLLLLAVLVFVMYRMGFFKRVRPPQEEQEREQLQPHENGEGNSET
T1 sequence (P18564 22-788, chain 2 of 2): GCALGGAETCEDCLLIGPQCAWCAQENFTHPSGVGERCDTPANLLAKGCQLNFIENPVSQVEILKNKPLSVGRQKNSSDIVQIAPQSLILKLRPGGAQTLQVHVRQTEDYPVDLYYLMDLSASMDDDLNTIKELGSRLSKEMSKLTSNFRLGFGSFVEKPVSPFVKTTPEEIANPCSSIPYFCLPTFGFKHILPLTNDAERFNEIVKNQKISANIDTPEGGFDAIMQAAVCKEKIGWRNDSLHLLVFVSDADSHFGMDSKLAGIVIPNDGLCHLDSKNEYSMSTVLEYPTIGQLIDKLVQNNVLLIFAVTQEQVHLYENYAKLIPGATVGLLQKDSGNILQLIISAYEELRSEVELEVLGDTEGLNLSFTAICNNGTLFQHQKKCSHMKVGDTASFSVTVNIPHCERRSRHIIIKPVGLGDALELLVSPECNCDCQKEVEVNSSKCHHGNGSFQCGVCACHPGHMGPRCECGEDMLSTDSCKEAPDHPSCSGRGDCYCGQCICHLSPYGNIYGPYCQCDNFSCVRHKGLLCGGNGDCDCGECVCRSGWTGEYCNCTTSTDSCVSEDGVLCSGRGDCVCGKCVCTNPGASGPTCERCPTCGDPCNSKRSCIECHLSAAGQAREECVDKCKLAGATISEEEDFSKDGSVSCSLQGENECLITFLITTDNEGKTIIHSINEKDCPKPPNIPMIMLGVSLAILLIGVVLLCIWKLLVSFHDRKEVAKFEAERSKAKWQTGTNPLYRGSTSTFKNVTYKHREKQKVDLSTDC

B1: biotinylated peptide binder SEQ ID No 2 targeting αvβ6 Integrin (peptide)
peptide: RGDLATLRQL
modifications: also: biotinylated, site not given here
notes: Synthetic peptide, biotinylated for flow cytometry
As to B1, the binding result was “binds”.

The values above are taken from patent publication US20220226486A1 (SYNTAB THERAPEUTICS, published 2022).
